Where no end group is shown, it is not given here.
Molecular target: T1, EGFRvIII (on U-87.ΔEGFRvIII cells) (human, UniProt P00533 25-1210)
T1 construct: whole, on cells; also called de2-7 EGFR; mutant EGFR
Assay: flow cytometry, membrane fluorescence staining of cell suspensions with 1 uM FITC-peptide for 30 min

B1: anti-EGFRvIII peptide (PEPCH1)-FITC (peptide)
peptide: HFLIIGFMRRALCGA
modifications: also: FITC label, position not given here
notes: Synthetic peptide after Campa et al., 2000; Used at 1 uM as a FITC conjugate; also called PEPHC1; PEPHC1 ligand
binding result: binds

— patent publication US20060147420A1 (University of Texas, published 2006)
